According to patent US20100120118A1:

Test system: purified MrpC

N-terminal histidine-tagged MazF-mx (H-MazF)
gel-shift assay of MrpC on the mazF-mx promoter (PmazF) after preincubation with H-MazF: Binding of MrpC to the promoter region was found to be inhibited when MrpC was preincubated with MazF-mx
